According to paper PMC5779224, “Autoinhibition of ankyrin-B/G membrane target bindings by intrinsically disordered segments from the tail regions” (eLife, 2017):

Legend:
[1] = target: T1, AnkB_MBD (AnkB ANK repeats only, aa 28–827) (human, UniProt Q01484-2 28-827); test: ITC; VP-ITC MicroCal, 25 °C; proteins in 50 mM Tris-HCl pH 7.8, 1 mM DTT, 1 mM EDTA with 100 mM or 500 mM NaCl as required; who was titrated is not told; settings: both partners purified
T1 construct: ankyrin-B (AnkB), human 220 kDa isoform, residues 28-827: the 24 ANK repeats (MBD), no linker; numbers count on: human 220 kDa AnkB NM_020977.3; Poor quality in 100 mM NaCl buffer; also called AnkB 28–827; source: E. coli BL21 (DE3), purified (Ni2+-NTA, size exclusion)
T1 sequence (looked up): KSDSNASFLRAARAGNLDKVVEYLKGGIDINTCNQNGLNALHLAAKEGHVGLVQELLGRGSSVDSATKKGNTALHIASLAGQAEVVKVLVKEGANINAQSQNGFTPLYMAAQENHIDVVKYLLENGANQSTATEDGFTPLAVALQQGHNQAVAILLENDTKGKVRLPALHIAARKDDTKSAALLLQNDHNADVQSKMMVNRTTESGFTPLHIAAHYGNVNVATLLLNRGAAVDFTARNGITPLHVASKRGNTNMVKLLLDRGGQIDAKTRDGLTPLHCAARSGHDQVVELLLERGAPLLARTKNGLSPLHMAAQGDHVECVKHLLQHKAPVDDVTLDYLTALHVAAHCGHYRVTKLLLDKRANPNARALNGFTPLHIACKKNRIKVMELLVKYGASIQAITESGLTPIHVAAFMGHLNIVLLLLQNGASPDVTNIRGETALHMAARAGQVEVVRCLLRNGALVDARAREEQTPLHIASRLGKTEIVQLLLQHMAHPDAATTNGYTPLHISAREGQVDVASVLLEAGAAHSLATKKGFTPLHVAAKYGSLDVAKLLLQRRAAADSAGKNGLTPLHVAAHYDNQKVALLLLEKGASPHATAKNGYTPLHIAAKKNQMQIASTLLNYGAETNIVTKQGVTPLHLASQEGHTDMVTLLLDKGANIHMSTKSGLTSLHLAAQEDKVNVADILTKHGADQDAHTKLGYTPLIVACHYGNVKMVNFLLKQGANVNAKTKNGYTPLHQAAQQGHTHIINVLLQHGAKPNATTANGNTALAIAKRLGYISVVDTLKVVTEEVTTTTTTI

AnkB_MBD Asn595Ala = target: T2, AnkB_MBD Asn595Ala (human, UniProt Q01484-2 28-827, Asn595Ala); test: as above; settings: both partners purified
T2 construct: ankyrin-B (AnkB), human 220 kDa isoform, MBD 28-827 with N595A in a finger loop; numbers count on: human 220 kDa AnkB NM_020977.3; source: E. coli BL21 (DE3), purified (Ni2+-NTA, size exclusion)
T2 sequence (looked up): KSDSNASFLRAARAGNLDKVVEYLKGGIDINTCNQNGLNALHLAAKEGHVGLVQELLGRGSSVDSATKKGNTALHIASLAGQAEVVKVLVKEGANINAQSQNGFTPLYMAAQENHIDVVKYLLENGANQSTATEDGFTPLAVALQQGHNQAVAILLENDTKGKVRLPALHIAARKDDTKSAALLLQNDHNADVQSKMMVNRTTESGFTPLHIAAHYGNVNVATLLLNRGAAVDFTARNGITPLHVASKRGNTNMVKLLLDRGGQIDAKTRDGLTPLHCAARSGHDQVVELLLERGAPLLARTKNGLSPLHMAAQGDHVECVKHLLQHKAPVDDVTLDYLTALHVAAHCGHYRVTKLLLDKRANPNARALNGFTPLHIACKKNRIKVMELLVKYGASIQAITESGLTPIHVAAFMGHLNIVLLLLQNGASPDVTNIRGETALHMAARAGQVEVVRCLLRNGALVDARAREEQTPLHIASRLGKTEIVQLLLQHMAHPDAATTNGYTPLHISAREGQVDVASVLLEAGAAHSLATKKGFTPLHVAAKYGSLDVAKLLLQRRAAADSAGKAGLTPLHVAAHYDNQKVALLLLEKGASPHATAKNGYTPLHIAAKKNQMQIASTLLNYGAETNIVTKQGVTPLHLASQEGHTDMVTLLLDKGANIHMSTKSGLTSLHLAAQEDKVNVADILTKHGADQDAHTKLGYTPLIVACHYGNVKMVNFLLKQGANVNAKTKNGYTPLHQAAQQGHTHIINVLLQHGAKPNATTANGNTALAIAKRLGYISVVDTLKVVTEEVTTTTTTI

binding result [1]: binds
binding result (AnkB_MBD Asn595Ala): binds
B1: AnkB_AI-c (aa 828–852) (domain or fragment, human, UniProt Q01484-2 828-852, looked up)
chain: TEKHKLNVPETMTEVLDVSDEEGDD
notes: numbers count on: human 220 kDa AnkB NM_020977.3; source: E. coli BL21 (DE3), purified (Ni2+-NTA, size exclusion)
